Results from publication PMC8269012.

Biological target: PwNAC11-cYFP fusion protein (Picea wilsonii)

dual-luciferase assay in tobacco: activation of the ERD1 promoter reporter on simultaneous expression of PwNAC11 and ABF3, against the control group (PwNAC11 alone 2.67-fold over empty vector): 3.04 fold
B1: ABF3 in pSPYNE (BiFC fusion) (natural protein)
chain: MGSRLNFKSFVDGVSEQQPTVGTSLPLTRQNSVFSLTFDEFQNSWGGGIGKDFGSMNMDELLKNIWTAEESHSMMGNNTSYTNISNGNSGNTVINGGGNNIGGLAVGVGGESGGFFTGGSLQRQGSLTLPRTISQKRVDDVWKELMKEDDIGNGVVNGGTSGIPQRQQTLGEMTLEEFLVRAGVVREEPQPVESVTNFNGGFYGFGSNGGLGTASNGFVANQPQDLSGNGVAVRQDLLTAQTQPLQMQQPQMVQQPQMVQQPQQLIQTQERPFPKQTTIAFSNTVDVVNRSQPATQCQEVKPSILGIHNHPMNNNLLQAVDFKTGVTVAAVSPGSQMSPDLTPKSALDASLSPVPYMFGRVRKTGAVLEKVIERRQKRMIKNRESAARSRARKQAYTMELEAEIAQLKELNEELQKKQVEIMEKQKNQLLEPLRQPWGMGCKRQCLRRTLTGPW
